In paper PMC10936776, “Structural and functional characterization of AfsR, an SARP family transcriptional activator of antibiotic biosynthesis in Streptomyces” (PLOS Biology, 2024):
One block for each molecule: values may come before it.

How the values were obtained:
[1] = target: T1, AfsR (dephosphorylated AfsR) (Streptomyces coelicolor, UniProt P25941); assay: in vitro MangoIII transcription assay after preincubation; assay type: biochemical; details: 500 nM dephosphorylated AfsR, 1 mM GTP preincubation 10 min 30 °C, RNAP-σHrdB, RbpA, CarD; activator
T1 construct: full-length, 993 residues, pET28a (His-tagged), E. coli BL21(DE3), Ni-NTA and SEC; wild type treated with lambda phosphatase (E. coli protein carries pT337); mainly monomer

[2] = target: T2, AfsR T337A mutant (S. coelicolor, UniProt P25941 1-993, T337A); assay: cryo-EM structure; AfsR_(T337A)-TIC: 32 uM AfsR_(T337A) preincubated with 5 uM afsS promoter DNA and 1 mM ATPγS, mixed with RNAP core, σ^HrdB, CarD, RbpA; assembling buffer; Superose 6; nominal resolution 3.63 Å, SARP region 5.10 Å; details: both partners purified
T2 construct: AfsR, S. coelicolor, full-length protein with T337A; Preincubated with afsS promoter DNA and 1 mM ATPγS for AfsR-TIC; Vector and host of the mutant are surmised from the wild type
T2 sequence (looked up): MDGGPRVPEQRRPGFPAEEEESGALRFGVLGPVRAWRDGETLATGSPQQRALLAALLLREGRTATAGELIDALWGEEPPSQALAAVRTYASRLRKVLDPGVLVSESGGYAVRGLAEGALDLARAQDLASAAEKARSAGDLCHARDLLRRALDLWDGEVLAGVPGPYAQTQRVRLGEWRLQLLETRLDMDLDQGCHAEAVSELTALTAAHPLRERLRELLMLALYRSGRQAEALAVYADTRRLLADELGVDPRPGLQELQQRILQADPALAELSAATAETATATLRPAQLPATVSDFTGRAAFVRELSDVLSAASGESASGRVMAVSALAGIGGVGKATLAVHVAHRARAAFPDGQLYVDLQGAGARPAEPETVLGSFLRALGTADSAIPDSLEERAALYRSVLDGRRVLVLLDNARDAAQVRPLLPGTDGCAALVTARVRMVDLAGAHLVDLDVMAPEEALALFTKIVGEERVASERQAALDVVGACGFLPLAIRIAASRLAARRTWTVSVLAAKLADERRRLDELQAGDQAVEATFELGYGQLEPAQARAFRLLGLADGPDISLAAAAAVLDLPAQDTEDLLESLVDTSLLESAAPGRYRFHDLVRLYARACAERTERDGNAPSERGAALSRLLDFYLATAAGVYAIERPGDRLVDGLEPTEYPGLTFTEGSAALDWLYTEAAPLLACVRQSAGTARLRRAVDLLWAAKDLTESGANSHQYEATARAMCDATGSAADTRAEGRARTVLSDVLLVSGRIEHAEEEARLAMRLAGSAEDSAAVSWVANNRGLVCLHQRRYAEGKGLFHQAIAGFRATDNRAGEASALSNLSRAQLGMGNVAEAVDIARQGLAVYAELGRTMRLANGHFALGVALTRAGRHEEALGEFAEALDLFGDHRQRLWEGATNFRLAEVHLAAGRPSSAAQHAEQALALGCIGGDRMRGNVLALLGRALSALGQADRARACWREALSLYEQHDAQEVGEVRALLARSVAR

[3] = substrate: Nc1ncnc2c1ncn2[C@@H]1O[C@H](COP(=O)(O)OP(=O)(O)OP(=O)(O)O)[C@@H](O)[C@H]1O; assay: Malachite green phosphate ATPase assay; assay type: biochemical, Streptomyces coelicolor; details: 5 μM protein, 20 mM Tris-HCl pH 7.5, 150 mM NaCl, 5 mM MgCl2, 30 min

Molecule: Nc1nc2c(ncn2[C@@H]2O[C@H](COP(=O)(O)OP(=O)(O)OP(=O)(O)O)[C@@H](O)[C@H]2O)c(=O)[nH]1 [GTP]
transcription activation [1]: preincubating dephosphorylated AfsR with ATP or GTP significantly enhances its transcription activation

binding result [2]: binds
B1: Streptomyces coelicolor RNA polymerase α subunit (natural protein, S. coelicolor)
chain: MLIAQRPSLTEEVVDEFRSRFVIEPLEPGFGYTLGNSLRRTLLSSIPGAAVTSIRIDGVLHEFTTVPGVKEDVTDLILNIKQLVVSSEHDEPVVMYLRKQGPGLVTAADIAPPAGVEVHNPDLVLATLNGKGKLEMELTVERGRGYVSAVQNKQVGQEIGRIPVDSIYSPVLKVTYKVEATRVEQRTDFDKLIVDVETKQAMRPRDAMASAGKTLVELFGLARELNIDAEGIDMGPSPTDAALAADLALPIEELELTVRSYNCLKREGIHSVGELVARSEADLLDIRNFGAKSIDEVKAKLAGMGLALKDSPPGFDPTAAADAFGADDDADAGFVETEQY
notes: RNA polymerase subunit alpha, S. coelicolor; Stood in the assay as a subunit of the RNAP core in the holoenzyme; density for one αCTD is seen; also called αCTD (C-terminal domain of the α subunit); source: S. coelicolor RNAP purified as described previously [37]

binding result [2]: binds
B2: Streptomyces coelicolor RNA polymerase sigma factor σ^HrdB (natural protein, S. coelicolor)
chain: MSASTSRTLPPEIAESVSVMALIERGKAEGQIAGDDVRRAFEADQIPATQWKNVLRSLNQILEEEGVTLMVSAAEPKRTRKSVAAKSPAKRTATKAVAAKPVTSRKATAPAAPAAPATEPAAVEEEAPAKKAAAKKTTAKKATAKKTTAKKAAAKKTTAKKEDGELLEDEATEEPKAATEEPEGTENAGFVLSDEDEDDAPAQQVAAAGATADPVKDYLKQIGKVPLLNAEQEVELAKRIEAGLFAEDKLANSDKLAPKLKRELEIIAEDGRRAKNHLLEANLRLVVSLAKRYTGRGMLFLDLIQEGNLGLIRAVEKFDYTKGYKFSTYATWWIRQAITRAMADQARTIRIPVHMVEVINKLARVQRQMLQDLGREPTPEELAKELDMTPEKVIEVQKYGREPISLHTPLGEDGDSEFGDLIEDSEAVVPADAVSFTLLQEQLHSVLDTLSEREAGVVSMRFGLTDGQPKTLDEIGKVYGVTRERIRQIESKTMSKLRHPSRSQVLRDYLD
notes: principal sigma factor HrdB, S. coelicolor; region 1.1 disordered in the map; Stood in the assay as part of the RNAP σ^HrdB-holoenzyme; also called σ subunit; σ R4 (region 4); source: purified as described previously [37]

B3: AfsR (dephosphorylated AfsR) (Streptomyces coelicolor A3(2)) (protein)
chain: MDGGPRVPEQRRPGFPAEEEESGALRFGVLGPVRAWRDGETLATGSPQQRALLAALLLREGRTATAGELIDALWGEEPPSQALAAVRTYASRLRKVLDPGVLVSESGGYAVRGLAEGALDLARAQDLASAAEKARSAGDLCHARDLLRRALDLWDGEVLAGVPGPYAQTQRVRLGEWRLQLLETRLDMDLDQGCHAEAVSELTALTAAHPLRERLRELLMLALYRSGRQAEALAVYADTRRLLADELGVDPRPGLQELQQRILQADPALAELSAATAETATATLRPAQLPATVSDFTGRAAFVRELSDVLSAASGESASGRVMAVSALAGIGGVGKTTLAVHVAHRARAAFPDGQLYVDLQGAGARPAEPETVLGSFLRALGTADSAIPDSLEERAALYRSVLDGRRVLVLLDNARDAAQVRPLLPGTDGCAALVTARVRMVDLAGAHLVDLDVMAPEEALALFTKIVGEERVASERQAALDVVGACGFLPLAIRIAASRLAARRTWTVSVLAAKLADERRRLDELQAGDQAVEATFELGYGQLEPAQARAFRLLGLADGPDISLAAAAAVLDLPAQDTEDLLESLVDTSLLESAAPGRYRFHDLVRLYARACAERTERDGNAPSERGAALSRLLDFYLATAAGVYAIERPGDRLVDGLEPTEYPGLTFTEGSAALDWLYTEAAPLLACVRQSAGTARLRRAVDLLWAAKDLTESGANSHQYEATARAMCDATGSAADTRAEGRARTVLSDVLLVSGRIEHAEEEARLAMRLAGSAEDSAAVSWVANNRGLVCLHQRRYAEGKGLFHQAIAGFRATDNRAGEASALSNLSRAQLGMGNVAEAVDIARQGLAVYAELGRTMRLANGHFALGVALTRAGRHEEALGEFAEALDLFGDHRQRLWEGATNFRLAEVHLAAGRPSSAAQHAEQALALGCIGGDRMRGNVLALLGRALSALGQADRARACWREALSLYEQHDAQEVGEVRALLARSVAR
notes: full-length, 993 residues, pET28a (His-tagged), E. coli BL21(DE3), Ni-NTA and SEC; wild type treated with lambda phosphatase (E. coli protein carries pT337); mainly monomer
Km ([3]; dephosphorylated): 1160 ± 231 µM | kcat ([3]; dephosphorylated): 0.0453 ± 0.00356 s⁻¹

B4: phosphorylated AfsR (phos-AfsR) (Streptomyces coelicolor A3(2)) (protein)
chain: MDGGPRVPEQRRPGFPAEEEESGALRFGVLGPVRAWRDGETLATGSPQQRALLAALLLREGRTATAGELIDALWGEEPPSQALAAVRTYASRLRKVLDPGVLVSESGGYAVRGLAEGALDLARAQDLASAAEKARSAGDLCHARDLLRRALDLWDGEVLAGVPGPYAQTQRVRLGEWRLQLLETRLDMDLDQGCHAEAVSELTALTAAHPLRERLRELLMLALYRSGRQAEALAVYADTRRLLADELGVDPRPGLQELQQRILQADPALAELSAATAETATATLRPAQLPATVSDFTGRAAFVRELSDVLSAASGESASGRVMAVSALAGIGGVGKTTLAVHVAHRARAAFPDGQLYVDLQGAGARPAEPETVLGSFLRALGTADSAIPDSLEERAALYRSVLDGRRVLVLLDNARDAAQVRPLLPGTDGCAALVTARVRMVDLAGAHLVDLDVMAPEEALALFTKIVGEERVASERQAALDVVGACGFLPLAIRIAASRLAARRTWTVSVLAAKLADERRRLDELQAGDQAVEATFELGYGQLEPAQARAFRLLGLADGPDISLAAAAAVLDLPAQDTEDLLESLVDTSLLESAAPGRYRFHDLVRLYARACAERTERDGNAPSERGAALSRLLDFYLATAAGVYAIERPGDRLVDGLEPTEYPGLTFTEGSAALDWLYTEAAPLLACVRQSAGTARLRRAVDLLWAAKDLTESGANSHQYEATARAMCDATGSAADTRAEGRARTVLSDVLLVSGRIEHAEEEARLAMRLAGSAEDSAAVSWVANNRGLVCLHQRRYAEGKGLFHQAIAGFRATDNRAGEASALSNLSRAQLGMGNVAEAVDIARQGLAVYAELGRTMRLANGHFALGVALTRAGRHEEALGEFAEALDLFGDHRQRLWEGATNFRLAEVHLAAGRPSSAAQHAEQALALGCIGGDRMRGNVLALLGRALSALGQADRARACWREALSLYEQHDAQEVGEVRALLARSVAR
notes: full-length, 993 residues, pET28a (His-tagged), E. coli BL21(DE3); dephosphorylated, then phosphorylated in vitro by AfsKΔC (pS22, pT337, pS391, pT506, pS953 by MS), SEC
Km ([3]; phosphorylated by AfsKΔC): 767 ± 163 µM | kcat ([3]; phosphorylated by AfsKΔC): 0.070 ± 0.00515 s⁻¹
